Measurements from article PMC3991395 (2014).
Blank lines part the entries; values can stand above or below the molecule they belong to.

How the values were obtained:
[1] = molecular target: RNF4 C55S, C59S tagged with glycine-cysteine at its C terminus (RNF4-C196); assay: cross-linking; disulfide dimer formation of RNF4-C196; 0.062, 0.12, 0.25, 0.5 and 1 μM protein, room temperature, 2 hr, no reducing agents, no SUMO; nonreducing SDS-PAGE and western blotting with an RNF4 antibody; the species is sensitive to DTT
[2] = molecular target: T1, RNF4 wild type, recombinant, with N-terminal fusions of ECFP or YFP, O88846; assay: FRET or BRET; in vitro FRET in the presence of poly-SUMO-2; YFP-RNF4 fixed at 0.5 μM, ECFP-RNF4 increased in 0.05 μM increments from 0 to 0.5 μM; triplicates; apparent Kd from a fit to a single binding site model; conditions: remark: other sources report otherwise
T1 chain: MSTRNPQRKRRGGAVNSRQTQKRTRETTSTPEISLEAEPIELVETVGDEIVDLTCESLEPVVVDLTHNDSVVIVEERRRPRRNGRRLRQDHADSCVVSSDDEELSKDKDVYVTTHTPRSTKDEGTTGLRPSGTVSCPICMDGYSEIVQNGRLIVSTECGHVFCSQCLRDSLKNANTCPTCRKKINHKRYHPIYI

[3] = molecular target: T1, RNF4 wild type, recombinant, with …; assay: FRET or BRET; in vitro FRET in the absence of poly-SUMO-2; YFP-RNF4 fixed at 0.5 μM, ECFP-RNF4 increased in 0.05 μM increments from 0 to 0.5 μM; triplicates; fit to a single binding site model; monomer to dimer; conditions: remark: other sources report otherwise
FRET; with polySUMO-2 = molecular target: the molecule itself; assay: FRET; with polySUMO-2

stoichiometry N [1]: 2
Molecule: RNF4 C55S, C59S tagged with glycine-cysteine at its C terminus (RNF4-C196) (enzyme)

Kd [2]: 60 nM
Kd [3]: 180 nM
B1: RNF4 wild type, recombinant, with N-terminal fusions of ECFP or YFP, O88846 1-194 (enzyme)
chain: MSTRNPQRKRRGGAVNSRQTQKRTRETTSTPEISLEAEPIELVETVGDEIVDLTCESLEPVVVDLTHNDSVVIVEERRRPRRNGRRLRQDHADSCVVSSDDEELSKDKDVYVTTHTPRSTKDEGTTGLRPSGTVSCPICMDGYSEIVQNGRLIVSTECGHVFCSQCLRDSLKNANTCPTCRKKINHKRYHPIYI

B2: RNF4 I194A, dimerization-deficient mutant, recombinant, with N-terminal fusions of ECFP or YFP (enzyme)
chain: MSTRNPQRKRRGGAVNSRQTQKRTRETTSTPEISLEAEPIELVETVGDEIVDLTCESLEPVVVDLTHNDSVVIVEERRRPRRNGRRLRQDHADSCVVSSDDEELSKDKDVYVTTHTPRSTKDEGTTGLRPSGTVSCPICMDGYSEIVQNGRLIVSTECGHVFCSQCLRDSLKNANTCPTCRKKINHKRYHPIYA
Kd (FRET; with polySUMO-2): 166 nM
